We go through 2 molecules from PMC10085042 (PLOS ONE, 2023).

The data set “crystal structure” deals with the molecule itself. As to the kind of experiment: crystal structure.
The next data set addresses T1, SARS-CoV-2 nsp9 (SARS-CoV-2, UniProt P0DTD1).
T1 construct: also called nsp9_(COV19); Nsp9_(COV19)
As to the kind of experiment: crystal structure. As to conditions: both partners purified.

B1: SARS-CoV-2 nsp9 (natural protein, UniProt P0DTD1 4141-4253, looked up)
chain: NNELSPVALRQMSCAAGTTQTACTDDNALAYYNTTKGGRFVLALLSDLQDLKWARFPKSDGTGTIYTELEPPCRFVTDTPKGPKVKYLYFIKGLNNLNRGMVLGSLAATVRLQ
notes: also called nsp9_(COV19); Nsp9_(COV19)
With B1, the binding result in the data set “crystal structure” was “binds”.

B2: anti-nsp9 VHH_(2nsp23) (VHH)
VHH: QVQLQESGGGLVQPGGSLRLSCAASGLAFSMYTMGWFRQAPGKEREFVAMIISSGDSTDYADSVKGRFTISRDNGKNTVYLQMDSLKPEDTAVYYCAAPKFRYYFSTSPGDFDSWGQGTQVTVSS
Turning to B2, the binding result with SARS-CoV-2 nsp9 is given as “binds”.
